{"source": "patent US20200024322A1", "about": "(Eli Lilly, published 2020)", "binders": {"B1": {"name": "Example 52 (peptide)", "peptide": "YXEGTFTSDYSIXLDSKAQXAFIEYLIEGGPSSGAPPPS", "modifications": "Aib2; αMeL13; K17((2-[2-(2-Amino-ethoxy)-ethoxy]-acetyl)2-(γ-Glu)-CO-(CH2)18-CO2H); Aib20; C-terminal NH2"}, "B2": {"name": "Example 84 (peptide)", "peptide": "B1 peptide with X13L, S16K, E24X", "modifications": "Aib2; K17((2-[2-(2-Amino-ethoxy)-ethoxy]-acetyl)2-(γ-Glu)-CO-(CH2)18-CO2H); Aib20; D-Glu24; C-terminal NH2"}, "B3": {"name": "Example 82 (peptide)", "peptide": "B1 peptide with I12X, X13L, S16K", "modifications": "Aib2; D-Ile12; K17((2-[2-(2-Amino-ethoxy)-ethoxy]-acetyl)2-(γ-Glu)-CO-(CH2)18-CO2H); Aib20; C-terminal NH2"}, "B4": {"name": "Example 130 (peptide)", "peptide": "B1 peptide with F6X, Y10E, X13L, S16K", "modifications": "Aib2; αMeF6; K17((2-[2-(2-Amino-ethoxy)-ethoxy]-acetyl)2-(γ-Glu)-CO-(CH2)18-CO2H); Aib20; C-terminal NH2"}, "B5": {"name": "Example 55 (peptide)", "peptide": "H[Aib]EGTFTSDYSI[αMeL]LDEK([AEEA-AEEA-γGlu-C20 diacid])AQHAFIEYLIEGGPSSGAPPPS-NH2", "modifications": "N-terminus assumed", "SMILES": "CC[C@H](C)[C@H](NC(=O)[C@H](CC(C)C)NC(=O)[C@H](Cc1ccc(O)cc1)NC(=O)[C@H](CCC(=O)O)NC(=O)[C@@H](NC(=O)[C@H](Cc1ccccc1)NC(=O)[C@H](C)NC(=O)[C@H](Cc1c[nH]cn1)NC(=O)[C@H](CCC(N)=O)NC(=O)[C@H](C)NC(=O)[C@H](CCCCNC(=O)COCCOCCNC(=O)COCCOCCNC(=O)CC[C@H](NC(=O)CCCCCCCCCCCCCCCCCCC(=O)O)C(=O)O)NC(=O)[C@H](CCC(=O)O)NC(=O)[C@H](CC(=O)O)NC(=O)[C@H](CC(C)C)NC(=O)[C@](C)(CC(C)C)NC(=O)[C@@H](NC(=O)[C@H](CO)NC(=O)[C@H](Cc1ccc(O)cc1)NC(=O)[C@H](CC(=O)O)NC(=O)[C@H](CO)NC(=O)[C@@H](NC(=O)[C@H](Cc1ccccc1)NC(=O)[C@@H](NC(=O)CNC(=O)[C@H](CCC(=O)O)NC(=O)C(C)(C)NC(=O)[C@@H](N)Cc1c[nH]cn1)[C@@H](C)O)[C@@H](C)O)[C@@H](C)CC)[C@@H](C)CC)C(=O)N[C@@H](CCC(=O)O)C(=O)NCC(=O)NCC(=O)N1CCC[C@H]1C(=O)N[C@@H](CO)C(=O)N[C@@H](CO)C(=O)NCC(=O)N[C@@H](C)C(=O)N1CCC[C@H]1C(=O)N1CCC[C@H]1C(=O)N1CCC[C@H]1C(=O)N[C@@H](CO)C(N)=O"}, "B6": {"name": "Example 56 (peptide)", "peptide": "Y[Aib]EGTFTSDYSI[αMeL]LDEK([AEEA-AEEA-γGlu-C20 diacid])AQHAFIEYLIEGGPSSGAPPPS-NH2", "modifications": "N-terminus assumed", "SMILES": "CC[C@H](C)[C@H](NC(=O)[C@H](CC(C)C)NC(=O)[C@H](Cc1ccc(O)cc1)NC(=O)[C@H](CCC(=O)O)NC(=O)[C@@H](NC(=O)[C@H](Cc1ccccc1)NC(=O)[C@H](C)NC(=O)[C@H](Cc1c[nH]cn1)NC(=O)[C@H](CCC(N)=O)NC(=O)[C@H](C)NC(=O)[C@H](CCCCNC(=O)COCCOCCNC(=O)COCCOCCNC(=O)CC[C@H](NC(=O)CCCCCCCCCCCCCCCCCCC(=O)O)C(=O)O)NC(=O)[C@H](CCC(=O)O)NC(=O)[C@H](CC(=O)O)NC(=O)[C@H](CC(C)C)NC(=O)[C@](C)(CC(C)C)NC(=O)[C@@H](NC(=O)[C@H](CO)NC(=O)[C@H](Cc1ccc(O)cc1)NC(=O)[C@H](CC(=O)O)NC(=O)[C@H](CO)NC(=O)[C@@H](NC(=O)[C@H](Cc1ccccc1)NC(=O)[C@@H](NC(=O)CNC(=O)[C@H](CCC(=O)O)NC(=O)C(C)(C)NC(=O)[C@@H](N)Cc1ccc(O)cc1)[C@@H](C)O)[C@@H](C)O)[C@@H](C)CC)[C@@H](C)CC)C(=O)N[C@@H](CCC(=O)O)C(=O)NCC(=O)NCC(=O)N1CCC[C@H]1C(=O)N[C@@H](CO)C(=O)N[C@@H](CO)C(=O)NCC(=O)N[C@@H](C)C(=O)N1CCC[C@H]1C(=O)N1CCC[C@H]1C(=O)N1CCC[C@H]1C(=O)N[C@@H](CO)C(N)=O"}, "B7": {"name": "Example 192 (peptide)", "peptide": "YXEGTXTSDASIXLDEKAQXEFIXYLIEGGPSSGAPPPS", "modifications": "Aib2; αMeF(2F)6; αMeL13; K17((2-[2-(2-Amino-ethoxy)-ethoxy]-acetyl)2-(γ-Glu)-CO-(CH2)18-CO2H); Aib20; D-Glu24; C-terminal NH2"}, "B8": {"name": "Example 210 (peptide)", "peptide": "B7 peptide with A10Y, E16X", "modifications": "Aib2; αMeF(2F)6; αMeL13; Dap16; K17((2-[2-(2-Amino-ethoxy)-ethoxy]-acetyl)2-(γ-Glu)-CO-(CH2)16-CO2H); Aib20; D-Glu24; C-terminal NH2"}, "B9": {"name": "Example 209 (peptide)", "peptide": "B7 peptide with A10Y, E16X", "modifications": "Aib2; αMeF(2F)6; αMeL13; Dab16; K17((2-[2-(2-Amino-ethoxy)-ethoxy]-acetyl)2-(γ-Glu)-CO-(CH2)16-CO2H); Aib20; D-Glu24; C-terminal NH2"}, "B10": {"name": "Example 208 (peptide)", "peptide": "B7 peptide with A10Y", "modifications": "Aib2; αMeF(2F)6; αMeL13; K17((2-[2-(2-Amino-ethoxy)-ethoxy]-acetyl)2-(γ-Glu)-CO-(CH2)14-CO2H); Aib20; D-Glu24; C-terminal NH2"}, "B11": {"name": "Example 160 (peptide)", "peptide": "B7 peptide with A10X, E21T", "modifications": "Aib2; αMeF(2F)6; Aib10; αMeL13; K17((2-[2-(2-Amino-ethoxy)-ethoxy]-acetyl)2-(γ-Glu)-CO-(CH2)18-CO2H); Aib20; D-Glu24; C-terminal NH2"}, "B12": {"name": "Example 86 (peptide)", "peptide": "Y[Aib]EGTFTSDYSILLDKK([AEEA-AEEA-γGlu-C20 diacid])AQ[Aib]AFIEYLIEAGPSSGAPPPS-NH2", "modifications": "N-terminus assumed", "SMILES": "CC[C@H](C)[C@H](NC(=O)[C@H](CC(C)C)NC(=O)[C@H](Cc1ccc(O)cc1)NC(=O)[C@H](CCC(=O)O)NC(=O)[C@@H](NC(=O)[C@H](Cc1ccccc1)NC(=O)[C@H](C)NC(=O)C(C)(C)NC(=O)[C@H](CCC(N)=O)NC(=O)[C@H](C)NC(=O)[C@H](CCCCNC(=O)COCCOCCNC(=O)COCCOCCNC(=O)CC[C@H](NC(=O)CCCCCCCCCCCCCCCCCCC(=O)O)C(=O)O)NC(=O)[C@H](CCCCN)NC(=O)[C@H](CC(=O)O)NC(=O)[C@H](CC(C)C)NC(=O)[C@H](CC(C)C)NC(=O)[C@@H](NC(=O)[C@H](CO)NC(=O)[C@H](Cc1ccc(O)cc1)NC(=O)[C@H](CC(=O)O)NC(=O)[C@H](CO)NC(=O)[C@@H](NC(=O)[C@H](Cc1ccccc1)NC(=O)[C@@H](NC(=O)CNC(=O)[C@H](CCC(=O)O)NC(=O)C(C)(C)NC(=O)[C@@H](N)Cc1ccc(O)cc1)[C@@H](C)O)[C@@H](C)O)[C@@H](C)CC)[C@@H](C)CC)C(=O)N[C@@H](CCC(=O)O)C(=O)N[C@@H](C)C(=O)NCC(=O)N1CCC[C@H]1C(=O)N[C@@H](CO)C(=O)N[C@@H](CO)C(=O)NCC(=O)N[C@@H](C)C(=O)N1CCC[C@H]1C(=O)N1CCC[C@H]1C(=O)N1CCC[C@H]1C(=O)N[C@@H](CO)C(N)=O"}}, "key": {"[1]": {"molecular_target": "T1, human GIP receptor (human, UniProt P48546 22-466)", "T1 construct": "whole, on cells; Used as crude membranes of stably transfected CHO cells; also called hGIPR", "T1 sequence (looked up)": "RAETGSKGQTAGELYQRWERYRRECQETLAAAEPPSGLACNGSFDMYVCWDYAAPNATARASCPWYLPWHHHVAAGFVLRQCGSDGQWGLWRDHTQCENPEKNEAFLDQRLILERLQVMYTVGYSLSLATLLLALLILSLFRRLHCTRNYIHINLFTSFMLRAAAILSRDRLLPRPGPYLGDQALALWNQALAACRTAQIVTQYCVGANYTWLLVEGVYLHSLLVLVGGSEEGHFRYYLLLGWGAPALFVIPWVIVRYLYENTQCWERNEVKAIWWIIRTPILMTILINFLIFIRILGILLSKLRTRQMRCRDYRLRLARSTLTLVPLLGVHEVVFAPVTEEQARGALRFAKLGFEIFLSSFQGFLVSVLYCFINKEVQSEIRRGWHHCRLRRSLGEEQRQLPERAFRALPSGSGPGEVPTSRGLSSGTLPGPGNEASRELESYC", "experiment": "SPA, [125I]-GIP displacement, hGIPR membranes"}, "[2]": {"molecular_target": "T2, human GLP-1 receptor (human, UniProt P43220 24-463)", "T2 construct": "whole, on cells; Used as crude membranes of stably transfected HEK293 cells; also called hGLP1R; hGLP-1R", "experiment": "SPA, [125I]-GLP-1 displacement, hGLP-1R membranes"}}, "note": "Changes are numbered by the printed parent chain. Numbered stars: 1 amine (or outer) side, 2 acyl side, 3 side chain; on linkers, the order of the positions; unused ones are H or OH. Square brackets hold non-standard residues; d marks the D form. Side chains are listed from the residue outwards. Ends that are not written are not given here. * marks the point of attachment. C20 diacid = O=C(O)CCCCCCCCCCCCCCCCCCC(=O)*; γGlu = O=C(O)[C@H](CCC(=O)[*:2])N[*:1]; αMeL = CC(C)C[C@](C)(N)C(=O)O; AEEA = NCCOCCOCC(=O)O; Aib = CC(C)(N)C(=O)O", "data": [{"binder": "B1", "values": [{"measurement": "Ki", "setting": "[1]", "result": 0.0342, "unit": "nM"}, {"measurement": "Ki", "setting": "[2]", "result": 5.81, "unit": "nM"}]}, {"binder": "B2", "values": [{"measurement": "Ki", "setting": "[1]", "result": 0.143, "unit": "nM"}, {"measurement": "Ki", "setting": "[2]", "result": 10.2, "unit": "nM"}]}, {"binder": "B3", "values": [{"measurement": "Ki", "setting": "[1]", "result": 14.9, "unit": "nM"}, {"measurement": "Ki", "setting": "[2]", "result": 6.82, "unit": "nM"}]}, {"binder": "B4", "values": [{"measurement": "Ki", "setting": "[1]", "result": 0.177, "unit": "nM"}, {"measurement": "Ki", "setting": "[2]", "result": 3.66, "unit": "nM"}]}, {"binder": "B5", "values": [{"measurement": "Ki", "setting": "[1]", "result": 6.24, "unit": "nM"}, {"measurement": "Ki", "setting": "[2]", "result": 7.29, "unit": "nM"}]}, {"binder": "B6", "values": [{"measurement": "Ki", "setting": "[1]", "result": 0.148, "unit": "nM"}, {"measurement": "Ki", "setting": "[2]", "result": 10.3, "unit": "nM"}]}, {"binder": "B7", "values": [{"measurement": "Ki", "setting": "[1]", "result": 0.118, "unit": "nM"}, {"measurement": "Ki", "setting": "[2]", "result": 2.89, "unit": "nM"}]}, {"binder": "B8", "values": [{"measurement": "Ki", "setting": "[1]", "result": 0.0399, "unit": "nM"}, {"measurement": "Ki", "setting": "[2]", "result": 1.58, "unit": "nM"}]}, {"binder": "B9", "values": [{"measurement": "Ki", "setting": "[1]", "result": 0.0664, "unit": "nM"}, {"measurement": "Ki", "setting": "[2]", "result": 1.43, "unit": "nM"}]}, {"binder": "B10", "values": [{"measurement": "Ki", "setting": "[1]", "result": 0.0537, "unit": "nM"}, {"measurement": "Ki", "setting": "[2]", "result": 2.13, "unit": "nM"}]}, {"binder": "B11", "values": [{"measurement": "Ki", "setting": "[1]", "result": 5.98, "unit": "nM"}, {"measurement": "Ki", "setting": "[2]", "result": 14.4, "unit": "nM"}]}, {"binder": "B12", "values": [{"measurement": "Ki", "setting": "[1]", "result": 0.0401, "unit": "nM"}, {"measurement": "Ki", "setting": "[2]", "result": 3.74, "unit": "nM"}]}]}
